Results: PMC12136220
Where “and” joins values, the source holds several entries; their conditions need not be identical. Equal values may be shown once.

Key:
[1] = target: human recombinant Hsp60 (human) (UniProt P10809)
[2] = target: human recombinant Hsp60 (human) (UniProt P10809); remark: listed apart in the source
[3] = target: Listeria adhesion protein (LAP) (Listeria monocytogenes); assay: cryo-EM structure; LAP alone, 1.2 mg/ml, Titan Krios 300 kV with K3 detector, cryoSPARC
[4] = target: Listeria adhesion protein (LAP) (Listeria monocytogenes); assay: cryo-EM structure; purified LAP mixed with Hsp60 at 2:1, incubated 4 h at 4°C; Titan Krios 300 kV with K3 detector, cryoSPARC; LAP-Hsp60 map refined in C1, Hsp60 alone in C7, LAP dimer in C2

Sequence of human recombinant Hsp60 (human) (P10809 27-573): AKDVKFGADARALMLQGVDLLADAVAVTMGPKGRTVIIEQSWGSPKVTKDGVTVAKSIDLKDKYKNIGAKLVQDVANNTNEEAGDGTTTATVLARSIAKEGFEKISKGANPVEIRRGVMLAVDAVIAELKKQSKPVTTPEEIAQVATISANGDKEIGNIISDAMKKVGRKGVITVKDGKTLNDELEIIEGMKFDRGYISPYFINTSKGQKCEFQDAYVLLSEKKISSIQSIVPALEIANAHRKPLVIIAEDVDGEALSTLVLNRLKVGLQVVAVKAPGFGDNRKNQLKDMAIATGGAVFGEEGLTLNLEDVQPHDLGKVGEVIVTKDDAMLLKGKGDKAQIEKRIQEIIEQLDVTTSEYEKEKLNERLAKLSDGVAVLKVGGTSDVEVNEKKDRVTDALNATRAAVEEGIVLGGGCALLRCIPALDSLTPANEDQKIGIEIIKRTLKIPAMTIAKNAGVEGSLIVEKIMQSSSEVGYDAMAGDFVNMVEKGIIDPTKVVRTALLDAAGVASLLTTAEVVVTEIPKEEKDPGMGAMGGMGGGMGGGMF

N2 subdomain of LAP (domain or fragment)
FD4 paracellular flux through Caco-2 monolayers in 1 h, relative to PBS control [1]: 149%
decrease of TEER of Caco-2 monolayers in 1 h, relative to full-length LAP (100%) [1]: 96%

N1 subdomain of LAP (domain or fragment)
FD4 paracellular flux through Caco-2 monolayers in 1 h, relative to PBS control [1]: 133%
decrease of TEER of Caco-2 monolayers in 1 h, relative to full-length LAP (100%) [1]: 78%

Listeria adhesion protein (LAP) (natural protein)
FD4 (FITC 4-kDa dextran) permeability through Caco-2 monolayers after 1 h, LAP 0.01-5 μg/mL [2]: 80%
stoichiometry N [3]: 2 and 4
FD4 paracellular flux through Caco-2 monolayers in 1 h, relative to PBS control [1]: 264%
stoichiometry N [4]: 4 and 2
